According to patent US10344077:

Experiments:
[1] = target: T1, Centromere B (UniProt P07199); test: AtheNA, Ab 25 ug/ml
T1 sequence (looked up): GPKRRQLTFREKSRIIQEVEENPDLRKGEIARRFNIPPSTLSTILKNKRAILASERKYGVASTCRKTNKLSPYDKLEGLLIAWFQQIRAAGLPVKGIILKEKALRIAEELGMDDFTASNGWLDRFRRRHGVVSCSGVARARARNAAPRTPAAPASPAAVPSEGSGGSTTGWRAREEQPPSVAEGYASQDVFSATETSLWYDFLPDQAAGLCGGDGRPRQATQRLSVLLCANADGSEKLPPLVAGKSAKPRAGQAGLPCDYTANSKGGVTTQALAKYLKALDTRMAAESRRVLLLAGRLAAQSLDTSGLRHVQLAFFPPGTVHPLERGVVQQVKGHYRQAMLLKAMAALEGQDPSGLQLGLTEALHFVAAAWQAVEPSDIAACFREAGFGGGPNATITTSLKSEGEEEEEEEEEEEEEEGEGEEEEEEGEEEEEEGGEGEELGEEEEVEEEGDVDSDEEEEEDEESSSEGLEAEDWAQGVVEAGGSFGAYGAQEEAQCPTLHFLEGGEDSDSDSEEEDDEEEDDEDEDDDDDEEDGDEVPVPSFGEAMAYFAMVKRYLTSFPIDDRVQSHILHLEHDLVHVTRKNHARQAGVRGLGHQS

[2] = target: Histones; test: AtheNA, Ab 25 ug/ml
[3] = target: T2, Jo-1 (UniProt P12081); test: AtheNA, Ab 25 ug/ml
T2 sequence (looked up): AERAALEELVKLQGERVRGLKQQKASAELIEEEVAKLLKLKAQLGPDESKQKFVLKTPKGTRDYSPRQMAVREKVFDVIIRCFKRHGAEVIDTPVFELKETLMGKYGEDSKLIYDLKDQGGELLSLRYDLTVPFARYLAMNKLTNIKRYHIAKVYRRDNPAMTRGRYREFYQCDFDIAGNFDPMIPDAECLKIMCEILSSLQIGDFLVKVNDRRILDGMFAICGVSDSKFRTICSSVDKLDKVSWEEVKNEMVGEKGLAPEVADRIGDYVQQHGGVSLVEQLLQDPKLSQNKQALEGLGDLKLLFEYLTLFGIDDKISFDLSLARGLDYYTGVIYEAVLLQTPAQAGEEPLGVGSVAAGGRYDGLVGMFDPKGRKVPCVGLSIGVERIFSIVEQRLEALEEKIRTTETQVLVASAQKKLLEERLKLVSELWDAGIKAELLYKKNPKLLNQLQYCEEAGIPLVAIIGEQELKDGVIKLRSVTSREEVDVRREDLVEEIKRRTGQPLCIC

[4] = target: RNP (ribonucleoprotein); test: AtheNA, Ab 25 ug/ml
[5] = target: SSA; test: AtheNA, Ab 25 ug/ml
[6] = target: SSB (UniProt P05455); test: AtheNA, Ab 25 ug/ml
[7] = target: Scl-70 (UniProt P11387); test: AtheNA, Ab 25 ug/ml
[8] = target: Sm (Smith antigen); test: AtheNA, Ab 25 ug/ml
[9] = target: T2, Jo-1; test: AtheNA, Ab 50 ug/ml
[10] = target: SSB (UniProt P05455); test: AtheNA, Ab 50 ug/ml
[11] = target: T1, Centromere B; test: AtheNA, Ab 25 ug/ml; remark: listed apart in the source
[12] = target: Histones; test: AtheNA, Ab 25 ug/ml; remark: listed apart in the source
[13] = target: T2, Jo-1; test: AtheNA, Ab 25 ug/ml; remark: listed apart in the source
[14] = target: RNP (ribonucleoprotein); test: AtheNA, Ab 25 ug/ml; remark: listed apart in the source
[15] = target: SSA; test: AtheNA, Ab 25 ug/ml; remark: listed apart in the source
[16] = target: SSB (UniProt P05455); test: AtheNA, Ab 25 ug/ml; remark: listed apart in the source
[17] = target: Scl-70 (UniProt P11387); test: AtheNA, Ab 25 ug/ml; remark: listed apart in the source
[18] = target: Sm (Smith antigen); test: AtheNA, Ab 25 ug/ml; remark: listed apart in the source
[19] = target: T2, Jo-1; test: AtheNA, Ab 50 ug/ml; remark: listed apart in the source
[20] = target: SSB (UniProt P05455); test: AtheNA, Ab 50 ug/ml; remark: listed apart in the source
[21] = target: T1, Centromere B; test: AtheNA, Ab 12.5 ug/ml
[22] = target: Histones; test: AtheNA, Ab 12.5 ug/ml
[23] = target: T2, Jo-1; test: AtheNA, Ab 12.5 ug/ml
[24] = target: RNP (ribonucleoprotein); test: AtheNA, Ab 12.5 ug/ml
[25] = target: SSA; test: AtheNA, Ab 12.5 ug/ml
[26] = target: SSB (UniProt P05455); test: AtheNA, Ab 12.5 ug/ml
[27] = target: Scl-70 (UniProt P11387); test: AtheNA, Ab 12.5 ug/ml
[28] = target: Sm (Smith antigen); test: AtheNA, Ab 12.5 ug/ml
[29] = target: T1, Centromere B; test: AtheNA, Ab 6.25 ug/ml
[30] = target: Histones; test: AtheNA, Ab 6.25 ug/ml
[31] = target: T2, Jo-1; test: AtheNA, Ab 6.25 ug/ml
[32] = target: RNP (ribonucleoprotein); test: AtheNA, Ab 6.25 ug/ml
[33] = target: SSA; test: AtheNA, Ab 6.25 ug/ml
[34] = target: SSB (UniProt P05455); test: AtheNA, Ab 6.25 ug/ml
[35] = target: Scl-70 (UniProt P11387); test: AtheNA, Ab 6.25 ug/ml
[36] = target: Sm (Smith antigen); test: AtheNA, Ab 6.25 ug/ml
[37] = target: T1, Centromere B; test: AtheNA, Ab 50 ug/ml
[38] = target: Histones; test: AtheNA, Ab 50 ug/ml
[39] = target: RNP (ribonucleoprotein); test: AtheNA, Ab 50 ug/ml
[40] = target: SSA; test: AtheNA, Ab 50 ug/ml
[41] = target: Scl-70 (UniProt P11387); test: AtheNA, Ab 50 ug/ml
[42] = target: Sm (Smith antigen); test: AtheNA, Ab 50 ug/ml

Sequence of Scl-70 (P11387 2-765 limits assumed): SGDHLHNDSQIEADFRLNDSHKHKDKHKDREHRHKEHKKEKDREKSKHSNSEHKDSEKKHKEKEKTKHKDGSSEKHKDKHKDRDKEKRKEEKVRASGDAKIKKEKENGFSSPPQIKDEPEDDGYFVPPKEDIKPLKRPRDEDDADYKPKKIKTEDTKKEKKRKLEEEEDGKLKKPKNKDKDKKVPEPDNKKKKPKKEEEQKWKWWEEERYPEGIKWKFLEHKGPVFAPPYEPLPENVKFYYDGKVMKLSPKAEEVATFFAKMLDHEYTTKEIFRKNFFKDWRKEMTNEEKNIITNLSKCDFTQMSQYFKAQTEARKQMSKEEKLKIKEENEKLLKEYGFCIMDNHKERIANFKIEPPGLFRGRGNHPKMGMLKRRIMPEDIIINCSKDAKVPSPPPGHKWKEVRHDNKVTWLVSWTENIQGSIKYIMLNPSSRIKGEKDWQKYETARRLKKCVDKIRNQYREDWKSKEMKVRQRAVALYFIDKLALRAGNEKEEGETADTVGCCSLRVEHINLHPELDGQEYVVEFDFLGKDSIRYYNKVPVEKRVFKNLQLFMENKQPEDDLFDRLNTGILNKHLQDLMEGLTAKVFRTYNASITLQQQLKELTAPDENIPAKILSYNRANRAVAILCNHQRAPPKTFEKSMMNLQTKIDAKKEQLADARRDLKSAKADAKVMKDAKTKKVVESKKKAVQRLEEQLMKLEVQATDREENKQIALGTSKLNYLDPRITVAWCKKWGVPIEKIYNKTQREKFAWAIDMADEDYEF
Sequence of SSB (P05455 whole entry): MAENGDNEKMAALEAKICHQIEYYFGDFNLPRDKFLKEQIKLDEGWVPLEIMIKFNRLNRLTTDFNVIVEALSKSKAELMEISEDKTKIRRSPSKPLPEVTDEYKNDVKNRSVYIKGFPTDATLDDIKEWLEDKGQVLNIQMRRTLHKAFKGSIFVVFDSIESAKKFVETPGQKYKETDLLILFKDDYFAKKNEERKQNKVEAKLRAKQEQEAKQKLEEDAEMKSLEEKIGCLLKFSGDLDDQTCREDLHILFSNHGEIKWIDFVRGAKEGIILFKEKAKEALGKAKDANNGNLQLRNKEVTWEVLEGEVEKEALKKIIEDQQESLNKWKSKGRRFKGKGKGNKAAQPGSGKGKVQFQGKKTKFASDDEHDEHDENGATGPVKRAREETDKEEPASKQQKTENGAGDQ

## 4E10 IgG1 (antibody)
[1]
  Athena reading (relative luminescence units): 3
[2]
  Athena reading (relative luminescence units): 10
[3]
  Athena reading (relative luminescence units): 160
[4]
  Athena reading (relative luminescence units): 3
[5]
  Athena reading (relative luminescence units): 33
[6]
  Athena reading (relative luminescence units): 227
[7]
  Athena reading (relative luminescence units): 1
[8]
  Athena reading (relative luminescence units): 2
[9]
  Athena reading (relative luminescence units): 190
[10]
  Athena reading (relative luminescence units): 263
[11]
  Athena reading (relative luminescence units): 9
[12]
  Athena reading (relative luminescence units): 24
[13]
  Athena reading (relative luminescence units): 206
[14]
  Athena reading (relative luminescence units): 20
[15]
  Athena reading (relative luminescence units): 81
[16]
  Athena reading (relative luminescence units): 189
[17]
  Athena reading (relative luminescence units): 4
[18]
  Athena reading (relative luminescence units): 46
[19]
  Athena reading (relative luminescence units): 227
[20]
  Athena reading (relative luminescence units): 207
[21]
  Athena reading (relative luminescence units): 1
[22]
  Athena reading (relative luminescence units): 7
[23]
  Athena reading (relative luminescence units): 131
[24]
  Athena reading (relative luminescence units): 3
[25]
  Athena reading (relative luminescence units): 21
[26]
  Athena reading (relative luminescence units): 199
[27]
  Athena reading (relative luminescence units): 0
[28]
  Athena reading (relative luminescence units): 3
[29]
  Athena reading (relative luminescence units): 2
[30]
  Athena reading (relative luminescence units): 6
[31]
  Athena reading (relative luminescence units): 113
[32]
  Athena reading (relative luminescence units): 3
[33]
  Athena reading (relative luminescence units): 17
[34]
  Athena reading (relative luminescence units): 178
[35]
  Athena reading (relative luminescence units): 1
[36]
  Athena reading (relative luminescence units): 3

## CH235UA/293i (antibody)
[11]
  Athena reading (relative luminescence units): 3
[12]
  Athena reading (relative luminescence units): 3
[13]
  Athena reading (relative luminescence units): 5
[14]
  Athena reading (relative luminescence units): 4
[15]
  Athena reading (relative luminescence units): 9
[16]
  Athena reading (relative luminescence units): 3
[17]
  Athena reading (relative luminescence units): 3
[18]
  Athena reading (relative luminescence units): 6
[21]
  Athena reading (relative luminescence units): 3
[22]
  Athena reading (relative luminescence units): 4
[23]
  Athena reading (relative luminescence units): 5
[24]
  Athena reading (relative luminescence units): 3
[25]
  Athena reading (relative luminescence units): 9
[26]
  Athena reading (relative luminescence units): 4
[27]
  Athena reading (relative luminescence units): 3
[28]
  Athena reading (relative luminescence units): 6
[29]
  Athena reading (relative luminescence units): 2
[30]
  Athena reading (relative luminescence units): 2
[31]
  Athena reading (relative luminescence units): 3
[32]
  Athena reading (relative luminescence units): 2
[33]
  Athena reading (relative luminescence units): 10
[34]
  Athena reading (relative luminescence units): 5
[35]
  Athena reading (relative luminescence units): 3
[36]
  Athena reading (relative luminescence units): 5

## DH270IA1 (antibody)
[1]
  Athena reading: 5
[2]
  Athena reading: 4
[3]
  Athena reading: 3
[4]
  Athena reading: 2
[5]
  Athena reading: 3
[6]
  Athena reading: 6
[7]
  Athena reading: 1
[8]
  Athena reading: 5
[37]
  Athena reading: 10
[38]
  Athena reading: 9
[9]
  Athena reading: 5
[39]
  Athena reading: 2
[40]
  Athena reading: 5
[10]
  Athena reading: 6
[41]
  Athena reading: 4
[42]
  Athena reading: 5
[21]
  Athena reading: 3
[22]
  Athena reading: 4
[23]
  Athena reading: 6
[24]
  Athena reading: 3
[25]
  Athena reading: 3
[26]
  Athena reading: 6
[27]
  Athena reading: 2
[28]
  Athena reading: 5
[29]
  Athena reading: 2
[30]
  Athena reading: 2
[31]
  Athena reading: 5
[32]
  Athena reading: 2
[33]
  Athena reading: 5
[34]
  Athena reading: 1
[35]
  Athena reading: 2
[36]
  Athena reading: 3

## synagis (antibody)
[1]
  Athena reading (relative luminescence units): 4
[2]
  Athena reading (relative luminescence units): 5
[3]
  Athena reading (relative luminescence units): 2
[4]
  Athena reading (relative luminescence units): 4
[5]
  Athena reading (relative luminescence units): 3
[6]
  Athena reading (relative luminescence units): 7
[7]
  Athena reading (relative luminescence units): 2
[8]
  Athena reading (relative luminescence units): 3
[11]
  Athena reading (relative luminescence units): 2
[12]
  Athena reading (relative luminescence units): 2
[13]
  Athena reading (relative luminescence units): 4
[14]
  Athena reading (relative luminescence units): 0
[15]
  Athena reading (relative luminescence units): 11
[16]
  Athena reading (relative luminescence units): 4
[18]
  Athena reading (relative luminescence units): 4
[21]
  Athena reading (relative luminescence units): 2
[22]
  Athena reading (relative luminescence units): 3
[23]
  Athena reading (relative luminescence units): 6
[24]
  Athena reading (relative luminescence units): 3
[25]
  Athena reading (relative luminescence units): 2
[26]
  Athena reading (relative luminescence units): 5
[27]
  Athena reading (relative luminescence units): 3
[28]
  Athena reading (relative luminescence units): 7
[29]
  Athena reading (relative luminescence units): 2
[30]
  Athena reading (relative luminescence units): 3
[31]
  Athena reading (relative luminescence units): 1
[32]
  Athena reading (relative luminescence units): 3
[33]
  Athena reading (relative luminescence units): 2
[34]
  Athena reading (relative luminescence units): 5
[35]
  Athena reading (relative luminescence units): 2
[36]
  Athena reading (relative luminescence units): 2
